T1: Mrc1 (budding yeast) (S. cerevisiae, UniProt P25588 1-1096)
T1 construct: Mrc1, S. cerevisiae; several small sections modelled (S339-K323 as printed, D468-Q483, N842-E858); source: S. cerevisiae strain yJY32, expressed and purified as described previously
T1 sequence: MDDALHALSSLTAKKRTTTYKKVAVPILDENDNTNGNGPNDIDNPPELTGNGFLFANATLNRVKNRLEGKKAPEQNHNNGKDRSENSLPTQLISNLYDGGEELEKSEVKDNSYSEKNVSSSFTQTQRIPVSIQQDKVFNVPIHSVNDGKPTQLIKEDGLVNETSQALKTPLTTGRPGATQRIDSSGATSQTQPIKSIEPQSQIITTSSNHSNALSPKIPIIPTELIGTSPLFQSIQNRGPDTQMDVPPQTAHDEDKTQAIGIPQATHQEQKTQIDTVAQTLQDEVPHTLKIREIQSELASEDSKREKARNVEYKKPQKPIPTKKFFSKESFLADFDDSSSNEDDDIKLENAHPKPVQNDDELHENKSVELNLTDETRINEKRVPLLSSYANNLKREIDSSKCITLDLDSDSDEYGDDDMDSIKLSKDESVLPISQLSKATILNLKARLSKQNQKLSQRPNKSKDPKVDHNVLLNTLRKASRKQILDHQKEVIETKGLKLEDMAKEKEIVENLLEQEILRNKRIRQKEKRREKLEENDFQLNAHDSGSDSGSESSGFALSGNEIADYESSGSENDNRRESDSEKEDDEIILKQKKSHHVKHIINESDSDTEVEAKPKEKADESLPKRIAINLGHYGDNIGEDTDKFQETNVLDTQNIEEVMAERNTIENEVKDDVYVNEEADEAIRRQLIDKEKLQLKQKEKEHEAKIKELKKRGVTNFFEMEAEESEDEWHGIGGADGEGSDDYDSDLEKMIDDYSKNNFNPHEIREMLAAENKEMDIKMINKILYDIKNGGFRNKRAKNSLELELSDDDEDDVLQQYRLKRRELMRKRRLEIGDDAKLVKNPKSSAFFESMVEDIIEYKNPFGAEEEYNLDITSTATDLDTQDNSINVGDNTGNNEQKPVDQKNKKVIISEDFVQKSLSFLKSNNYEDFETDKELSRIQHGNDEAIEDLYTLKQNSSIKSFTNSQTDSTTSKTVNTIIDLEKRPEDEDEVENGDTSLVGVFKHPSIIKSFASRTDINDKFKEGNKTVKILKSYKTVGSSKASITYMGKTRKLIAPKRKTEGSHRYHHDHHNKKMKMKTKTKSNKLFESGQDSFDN

T2: PRIM2 (human primase accessory subunit) (human, UniProt P49643 1-509)
T2 construct: PRIM2, human; modelled residues 1-5 (N terminus) and 17-252 (NTD); stood in the assay as a subunit of m18; also called PRIM2NTD; PRIM2_(Nterm)
T2 sequence: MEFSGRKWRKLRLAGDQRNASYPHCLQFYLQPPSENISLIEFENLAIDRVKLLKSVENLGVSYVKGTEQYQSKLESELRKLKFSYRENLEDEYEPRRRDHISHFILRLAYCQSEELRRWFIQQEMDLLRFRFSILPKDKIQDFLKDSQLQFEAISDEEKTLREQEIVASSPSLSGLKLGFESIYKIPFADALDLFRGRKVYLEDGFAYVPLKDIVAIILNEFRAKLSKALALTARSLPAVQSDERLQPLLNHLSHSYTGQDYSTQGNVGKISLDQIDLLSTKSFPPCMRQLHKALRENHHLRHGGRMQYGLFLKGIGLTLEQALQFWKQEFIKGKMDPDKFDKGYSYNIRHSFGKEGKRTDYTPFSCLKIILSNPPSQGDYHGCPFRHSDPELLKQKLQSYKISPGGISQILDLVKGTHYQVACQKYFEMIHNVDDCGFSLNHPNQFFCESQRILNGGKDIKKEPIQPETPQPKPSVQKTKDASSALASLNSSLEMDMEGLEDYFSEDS

B1: Tof1-Csm3 (budding yeast) (complex, S. cerevisiae)
chain 1: MSADLQQGTTNAADFSLTVLRARIALLATAIGGPDYTSQIDPPPYKLGDDCLACLKDLKRWFKLVDDQQKRWDVAMAVAEYRILTDDLLPILIDWENKCSLAAKLAKNNPDHEEFRNKAYYDKIALNCLQLLVLMTWPLIVTEQSSSNQITLYGELKKHQLVYKKTILSMESGKVLRAAIRLALDVIKIDRLSRTPRDNMVLKLVLNFFRNVIAIEPGEFTINTKKSMPKKGITSIDTLPPNVSMDDISLNTVISSFHKNKVFGFLLTLTSSLSKEFDQDFINIPLLEIMFYFTKDVNQELLFPRQFETGTHSKVVNKNESSSANNIVTSAGFELSKLLQKEHQMRKNVIKHTSARHSRFGGLLSIQTPDKTRLTVSGSQALVDEKIALQKLDDSKKWNKRIIKKHQSVAAEGLPNSLLNSQTGKAIFFTESNGKHFKEFINNFIDSGFNILLHSVTNYFTTEQDRMVTLEQVEYLLFFAWFVKYQLLRSKIDNSADIKQVSEALKEVTFILVSSLLRSAYDLKNWTVTHAGMIAFNELLNLVSRTKAAQEEDSTDIEFIVSRLFSDERIQLLSNLPKIGSKYSLQFMKSCIELTHSVLKVLEQYSDDKTLVIEGKSRRQKKFNISEGDITKLIEEENVDRDEALDILTSSLRSIEVNFQKVQANYMTEPVIETYINFLERFRELEDDSIKKVFSFFHRVFVQAKEQALLFRFDLIILLREMLSPDGLDRMSRSRKYVSQFSDYFLARLKKRLKKSPAWFVGLLFPPLHNSEVGFYQRYGEYNVLNNESMYAAPASQFKPIPDEEALPPSILLDMKYGVLVSTLLDDGKTELLDQLLKHITHTLDIFKSWLTVNVNAGKETVNPPNEYFTLTGVLNNDPIFKDKDYRALLLLIGYSIPRKINEPCFLPGTVEVSDLTVSCELVKKYLSTPFETPNGLPSSSYLLRVRSEKDSFSHNEQDGWEGDDDYDYNDPYIVPDDQILSKSDAAYFKDLDNNASDKLKGTKFSKGIARSKKKDKRKRRKGEAKTNLPMFGDQDDERPQTVRERHGVFSKEFISDSEDDEDLMNPIFFENETYMRWLLDKNNGQLTEDRYIQFAKFAAERMNNGGVVTGDYTSLFGGSIPSIESIRATESSSFAPDKSLISLASHVASEMSIFDVNNNNNNQLSDDDVNSESRNSLGSSQPSNSQNMFQSEVYSRKESTKRSLEASAADESDEDEEAIRLFGKKSRVVLSQGDSDD
chain 2: MDQDFDSLLLGFNDSDSVQKDPTVPNGLDGSVVDPTIADPTAITARKRRPQVKLTAEKLLSDKGLPYVLKNAHKRIRISSKKNSYDNLSNIIQFYQLWAHELFPKAKFKDFMKICQTVGKTDPVLREYRVSLFRDEMGMSFDVGTRETGQDLERQSPMVEEHVTSAEERPIVADSFAQDKRNVNNVDYDNDEDDDIYHLSYRNRRGRVLDERGNNETVLNNVVPPKEDLDALLKTFRVQGPVGLEENEKKLLLGWLDAHRKMEKGSMTEEDVQLIQSLEEWEMNDIEGQHTHYDLLPGGDEFGVDQDELDAMKEMGF
notes: Tof1, S. cerevisiae; Csm3, S. cerevisiae; source: S. cerevisiae strain yAE48, expressed and purified as described previously
B2: Mcm2 (budding yeast) (natural protein, S. cerevisiae)
chain: MSDNRRRRREEDDSDSENELPPSSPQQHFRGGMNPVSSPIGSPDMINPEGDDNEVDDVPDIDEVEEQMNEVDLMDDNMYEDYAADHNRDRYDPDQVDDREQQELSLSERRRIDAQLNERDRLLRNVAYIDDEDEEQEGAAQLDEMGLPVQRRRRRRQYEDLENSDDDLLSDMDIDPLREELTLESLSNVKANSYSEWITQPNVSRTIARELKSFLLEYTDETGRSVYGARIRTLGEMNSESLEVNYRHLAESKAILALFLAKCPEEMLKIFDLVAMEATELHYPDYARIHSEIHVRISDFPTIYSLRELRESNLSSLVRVTGVVTRRTGVFPQLKYVKFNCLKCGSILGPFFQDSNEEIRISFCTNCKSKGPFRVNGEKTVYRNYQRVTLQEAPGTVPPGRLPRHREVILLADLVDVSKPGEEVEVTGIYKNNYDGNLNAKNGFPVFATIIEANSIKRREGNTANEGEEGLDVFSWTEEEEREFRKISRDRGIIDKIISSMAPSIYGHRDIKTAVACSLFGGVPKNVNGKHSIRGDINVLLLGDPGTAKSQILKYVEKTAHRAVFATGQGASAVGLTASVRKDPITKEWTLEGGALVLADKGVCLIDEFDKMNDQDRTSIHEAMEQQSISISKAGIVTTLQARCSIIAAANPNGGRYNSTLPLAQNVSLTEPILSRFDILCVVRDLVDEEADERLATFVVDSHVRSHPENDEDREGEELKNNGESAIEQGEDEINEQLNARQRRLQRQRKKEEEISPIPQELLMKYIHYARTKIYPKLHQMDMDKVSRVYADLRRESISTGSFPITVRHLESILRIAESFAKMRLSEFVSSYDLDRAIKVVVDSFVDAQKVSVRRQLRRSFAIYTLGH
notes: Mcm2, S. cerevisiae; stood in the assay as a subunit of m2; source: subunit of CMG from S. cerevisiae strain yJY197, purified as described previously
B3: Cdc45 (budding yeast) (natural protein, S. cerevisiae, UniProt Q08032 1-650, looked up)
chain: MYYGISQFSEAYNKILRNSSSHSSCQLVIFVSCLNIDALCATKMLSLLFKKQLVQSQIVPIFGYSELRRHYSQLDDNINSLLLVGFGGVIDLEAFLEIDPQEYVIDTDEKSGEQSFRRDIYVLDAHRPWNLDNIFGSQIIQCFDDGTVDDTLGEQKEAYYKLLELDEESGDDELSGDENDNNGGDDEATDADEVTDEDEEDEDETISNKRGNSSIGPNDLSKRKQRKKQIHEYEGVLEEYYSQGTTVVNSISAQIYSLLSAIGETNLSNLWLNILGTTSLDIAYAQVYNRLYPLLQDEVKRLTPSSRNSVKTPDTLTLNIQPDYYLFLLRHSSLYDSFYYSNYVNAKLSLWNENGKKRLHKMFARMGIPLSTAQETWLYMDHSIKRELGIIFDKNLDRYGLQDIIRDGFVRTLGYRGSISASEFVEALTALLEVGNSTDKDSVKINNDNNDDTDGEEEEDNSAQKLTNLRKRWVSNFWLSWDALDDRKVELLNRGIQLAQDLQRAIFNTGVAILEKKLIKHLRIYRLCVLQDGPDLDLYRNPLTLLRLGNWLIECCAESEDKQLLPMVLASIDENTDTYLVAGLTPRYPRGLDTIHTKKPILNNFSMAFQQITAETDAKVRIDNFESSIIEIRREDLSPFLEKLTLSGLL
notes: Cdc45, S. cerevisiae; stood in the assay as a subunit of m2; source: subunit of CMG from S. cerevisiae strain yJY197, purified as described previously
B4: PSF2 (human GINS subunit) (natural protein)
chain: MDAAEVEFLAEKELVTIIPNFSLDKIYLIGGDLGPFNPGLPVEVPLWLAINLKQRQKCRLLPPEWMDVEKLEKMRDHERKEETFTPMPSPYYMELTKLLLNHASDNIPKADEIRTLVKDMWDTRIAKLRVSADSFVRQQEAHAKLDNLTLMEINTSGTFLTQALNHMYKLRTNLQPLESTQSQDF
notes: PSF2, subunit of GINS, human; stood in the assay as a subunit of m19

Assays:
Conditions in all cases: both partners purified
[1] = target: T3, budding yeast CMG (Cdc45-Mcm2-7-GINS) replicative helicase (S. cerevisiae, UniProt Q08032 1-650; P29469 1-868; P24279 1-971; P30665 1-933; P29496 1-775; P53091 …); assay: cryo-EM structure; budding yeast replisome: 150 nM CMG on fork DNA (39 nt 3′ flap, 60 nt 5′ flap) with 1.5-fold molar excess of Tof1-Csm3, Mrc1 and Pol α-primase; 25 mM HEPES-NaOH pH 7.6, 150 mM NaOAc, 0.5 mM TCEP, 500 μM AMP-PNP, 10 mM Mg(OAc)2, on ice; 10-30% glycerol gradient with glutaraldehyde and BS3 cross-linkers
T3 construct: Cdc45, S. cerevisiae; Mcm2, S. cerevisiae; Mcm3, S. cerevisiae; Mcm4, S. cerevisiae (named only within Mcm2-7); Mcm5, S. cerevisiae; Mcm6, S. cerevisiae (named only within Mcm2-7); Mcm7, S. cerevisiae (named only within Mcm2-7); Psf1, subunit of GINS, S. cerevisiae; Psf2, subunit of GINS, S. cerevisiae; Sld5, subunit of GINS, S. cerevisiae; source: S. cerevisiae strain yJY197, expressed and …

[2] = target: T1, Mrc1 (budding yeast); assay: as above
[3] = target: T2, PRIM2 (human primase accessory subunit); assay: cryo-EM structure; human replisome: 150 nM CMG on fork DNA (60 nt or 15 nt 5′ flap) with 1.5-fold molar excess of AND-1, TIMELESS-TIPIN, CLASPIN and Pol α-primase; 25 mM HEPES-NaOH pH 7.6, 150 mM NaOAc, 0.5 mM TCEP, 500 μM AMP-PNP, 10 mM Mg(OAc)2, on ice; 10-30% glycerol gradient with glutaraldehyde and BS3 cross-linkers

Binder | binding result [2] | other results
B1 | – | binding result [1]: binds
B2 | binds | –
B3 | binds | –
B4 | – | binding result [3]: binds

Reference: article PMC10501992, “How Pol α-primase is targeted to replisomes to prime eukaryotic DNA replication” (Molecular Cell, 2023)
